Source: US20220064331A1 (Genentech, published 2022)
Substitutions are numbered along the chain they refer to.

T1: rabbit KLB (+N-ter FLAG) (rabbit)
T1 construct: expressed from KLB cDNA on HEK293T cells and read by FACS
T1 chain: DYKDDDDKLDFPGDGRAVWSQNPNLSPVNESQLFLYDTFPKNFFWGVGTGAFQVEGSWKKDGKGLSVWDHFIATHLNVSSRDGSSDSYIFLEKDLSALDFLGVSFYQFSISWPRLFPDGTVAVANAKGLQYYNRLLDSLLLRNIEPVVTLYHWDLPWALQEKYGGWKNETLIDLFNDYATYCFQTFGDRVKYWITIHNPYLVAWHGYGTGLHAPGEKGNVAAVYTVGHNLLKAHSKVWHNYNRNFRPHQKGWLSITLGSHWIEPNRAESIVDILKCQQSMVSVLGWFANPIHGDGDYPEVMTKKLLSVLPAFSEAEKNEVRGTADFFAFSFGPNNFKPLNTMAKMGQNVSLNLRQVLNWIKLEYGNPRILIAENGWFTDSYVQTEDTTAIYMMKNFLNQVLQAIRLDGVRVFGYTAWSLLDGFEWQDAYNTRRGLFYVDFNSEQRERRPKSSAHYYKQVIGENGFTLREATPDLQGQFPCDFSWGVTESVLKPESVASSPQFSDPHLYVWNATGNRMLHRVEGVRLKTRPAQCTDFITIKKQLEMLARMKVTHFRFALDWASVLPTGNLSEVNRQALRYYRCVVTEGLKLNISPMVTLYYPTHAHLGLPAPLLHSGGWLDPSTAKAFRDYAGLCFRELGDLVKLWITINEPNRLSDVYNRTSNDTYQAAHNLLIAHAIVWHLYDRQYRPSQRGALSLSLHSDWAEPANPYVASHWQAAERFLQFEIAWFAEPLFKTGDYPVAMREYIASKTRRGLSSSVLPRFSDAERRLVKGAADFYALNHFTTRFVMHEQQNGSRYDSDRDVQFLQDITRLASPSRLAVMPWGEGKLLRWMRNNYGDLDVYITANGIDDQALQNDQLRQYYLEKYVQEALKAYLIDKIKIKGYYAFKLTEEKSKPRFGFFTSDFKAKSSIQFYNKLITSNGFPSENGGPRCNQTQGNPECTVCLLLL

T2: cynomolgus monkey KLB (+N-ter FLAG) (cynomolgus monkey, UniProt Q86Z14 53-991 (human entry))
T2 construct: expressed from KLB cDNA on HEK293T cells and read by FACS; also called Cyno KLB
T2 chain: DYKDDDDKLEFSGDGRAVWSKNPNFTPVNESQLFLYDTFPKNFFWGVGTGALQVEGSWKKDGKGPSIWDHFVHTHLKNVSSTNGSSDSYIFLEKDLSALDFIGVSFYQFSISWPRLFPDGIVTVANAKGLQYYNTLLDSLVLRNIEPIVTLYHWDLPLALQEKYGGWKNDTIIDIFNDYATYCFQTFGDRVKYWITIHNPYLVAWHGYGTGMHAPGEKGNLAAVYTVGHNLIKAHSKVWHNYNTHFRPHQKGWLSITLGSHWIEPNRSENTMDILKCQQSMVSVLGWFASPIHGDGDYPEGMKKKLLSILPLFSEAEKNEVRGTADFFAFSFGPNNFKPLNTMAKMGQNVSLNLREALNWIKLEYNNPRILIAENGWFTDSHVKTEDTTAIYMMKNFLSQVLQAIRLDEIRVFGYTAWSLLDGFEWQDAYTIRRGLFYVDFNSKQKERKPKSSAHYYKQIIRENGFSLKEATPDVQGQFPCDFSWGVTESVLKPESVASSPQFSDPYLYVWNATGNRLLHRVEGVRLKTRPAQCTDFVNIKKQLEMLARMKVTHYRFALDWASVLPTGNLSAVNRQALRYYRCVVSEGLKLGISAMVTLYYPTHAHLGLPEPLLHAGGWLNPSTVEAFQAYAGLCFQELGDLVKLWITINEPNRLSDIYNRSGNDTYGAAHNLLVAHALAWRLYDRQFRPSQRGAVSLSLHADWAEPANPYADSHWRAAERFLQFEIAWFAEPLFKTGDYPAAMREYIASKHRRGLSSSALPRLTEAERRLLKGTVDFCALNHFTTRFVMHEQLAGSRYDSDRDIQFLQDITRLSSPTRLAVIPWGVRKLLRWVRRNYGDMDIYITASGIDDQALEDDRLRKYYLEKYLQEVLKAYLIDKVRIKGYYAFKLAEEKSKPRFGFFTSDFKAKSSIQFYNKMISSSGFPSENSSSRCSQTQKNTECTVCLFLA

B1: 14C6 (antibody, V domains shown)
VH: QIQLQQSGAELMKPGASVRMSCKASGYTFSSYWIEWVKQRSGHGLEWIGEIFPGGGSTIYNENFRDKATFTADTSSNTAYMQLSSLTSEDSAVYFCARRGYYDAAWFDYWGQGTLVTVSA
VL: QIVLTQSPAIMSASPGERVTLTCSASSSLSSSYLYWYQQKPGSSPKLWIYGASNLASGVPGRFSGSGSGTSYSLTISSMEAEDAASYFCHQWSSYPLTFGSGTKLELK
notes: murine hybridoma-derived anti-KLB antibody
B2: 8C5 (antibody, V domains shown)
VH: QVQLKQSGPGLVQPSQSLSVACTVSDFSLTTYGVHWVRQSPGKGLEWLGVIWSGGSTDYNAAFISRLTISKDNSKSQVFFKMNSLQTTDTAIYYCARDYGSTYVDAIDYWGQGTSVTVSS
VL: DIVLTQSPTSLAVSLGQRATISCRASESVESYGNRYMTWYQQKPGQPPKLLIYRAANLQSGIPARFSGSGSRTDFTLTIDPVEADDVATYYCQQSNEDPWTFGGGTKVEIK
notes: murine hybridoma-derived anti-KLB antibody; also called KLBmAb1
B3: 24A1 (antibody, V domains shown)
VH: QVQLKQSGAELVRPGTSVTLSCKASGYTFTDYEMHWMKQTPVYGLEWIGAIWPENADSVYNQKFKGKVTLTADKSSSTAYMDLRSLTSEDSAVYYCTREGGNYWGQGTTLTVSS
VL: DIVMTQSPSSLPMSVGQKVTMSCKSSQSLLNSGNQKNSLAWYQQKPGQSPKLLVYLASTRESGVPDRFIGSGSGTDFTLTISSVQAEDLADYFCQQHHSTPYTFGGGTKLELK
notes: as for B1
B4: 5F8 (antibody, V domains shown)
VH: EVQLQQSGTELVRPGASVKLSCTSSDFNIKDTYIHWVKQRPEQGLDWLGRIDPANGNTKYDPKFQGKAAMTSDTSSNTAYLRLSSLTSEDTAVYYCASSGNYGAMDYWGQGTSVTVSS
VL: ESVLTQSPALMSASLGEKVTMTCRASSSVNHMYWYQQKSDASPKLWIYYTSTLAPGVPARFSGSGSGNSYSLTISSMEGEDAATYYCQQFTISPSMYTFGGGTKLEIK
notes: as for B1
B5: 8E1 (antibody, V domains shown)
VH: EVQLQQSGAELVKPGASVKLSCTAADFNIKDTYMHWVKQRPEQGLEWIGRIDPSNGNAKYDPKFQGKASITADSSSNTAYLHLSSLTSEDTAVYYCASRALGNGYALGYWGQGTSVTVSS
VL: DIQMTQSSSYLSVSLGGSVTITCKASDHINNWLAWYQQKPGNAPRLLIYGTTNLETGVPSRFSGSGSGRDYILSITSLQSEDVASYYCQQYWNTPFTFGSGTKLEIK
notes: as for B1
B6: 6C1 (antibody, V domains shown)
VH: QVQLQQSGDELMKPGASVKISCKVTGNTFSSYWIEWVKQRPGHGLEWIGEILPGSDSTKYVEKFKVKATFTADTSSNTAYMQLSSLTSEDSAVYYCARGGYHYPGWLVYWGQGTLVTVSA
VL: DIVMTQSQKFMSTSVGDRVSVTCKASQNVDSYVAWYQQKAGQSPKPLIYSASYRFSGVPDRFTGSGSGTEFTLTISNVQSEDLAEYFCQQYNISPYTFGGGTKLEIK
notes: murine hybridoma-derived anti-KLB antibody; also called KLBmAb4
B7: 12B8 (antibody, V domains shown)
VH: QIQLVQSGPELKKPGETAKISCKASGYAFSNYGMNWVKQAPGKDLKWMGWIDTDTGEATYTDDFKGRFVFSLETSASTAYLQINNLKNEDMATYFCAREEYGLFGFPYWGHGTLVTVSA
VL: DIQMTQSSSSFSVSLGDRVTITCKASEDIYNRLAWYQQKPGSAPRLLISAATSLETGVPSRFSGSGSGKDYTLSITSLQTEDVATYYCQQYWSNPLTFGAGTKLEIK
notes: as for B1
B8: 11D4 (antibody, V domains shown)
VH: QVQVKESGPGLVAPSQSLSITCTVSGFSLTNYGVSWIRQPPGKGLEWLGVIWGDGSINYHSALISRLTITKDNSKSQVFLKLNSLEADDTATYYCAKTHDWFDYWGQGTLVTVSA
VL: DIQMTQTPSSLSASLGDRVTINCRASQDISNYFNWYQQKPNGTIKLLIYYTSRLQSGVPSRFSGSGSGTDYSLTISNLEQEDKATYFCHQVRTLPWTFGGGTKLEIK
notes: murine hybridoma-derived anti-KLB antibody; also called KLBmAb5
B9: 14C10 (antibody, V domains shown)
VH: QVTLKESGPGILQPSQTLSLTCSFSGFSLSTSAMGIGWIRQPSGKGLEWLAHIWWDDDKRYNPALKSRLTISKDTSRNQVFLKIASVDTADTATYFCARIDGIYDGSFYAMDYWGQGTSVTVSS
VL: DIVLTQSPASLAVSLGQRATISCRASESVDSYGNSFMHWYQQKPGQPPKLLIYRASNLESGIPARFSGSGSRTDFTLTINPVEADDVANYYCQQSNEDYTFGGGTKLEIK
notes: murine hybridoma-derived anti-KLB antibody; also called KLBmAb3
B10: 8H7 (antibody, V domains shown)
VH: QVQLQQPGAEIVKPGASVRLSCKASGYSFTSYWIHWVKQRPGQGLEWIGEIDPSVSNSNYNQKFKGKATLTADKSSSTAYMQLSGLTSEDSAVYFCVRLGVMVYGSSPFWFAYWGQGTLVTVSA
VL: DIVMTQSQKFMSTSVGDRVSITCKASQFVSDAVAWYQQKPGQSPKLLICSASYRYTGVPDRFTGSGSGTDFTFTISSVRTEDLAVYYCQQHYIVPYTFGGGTTLEIE
notes: as for B1
B11: 12A11 (antibody, V domains shown)
VH: EVKFLESGGGLVQPGGSLRLSCAVSGIDFSRYWMSWVRQAPGKGLEWIGEISPDSSTINYTPSLKDKFVISRDNAKNTLYLQMSKVRSADTALYYCARPSPALDYWGQGTLVTVSA
VL: DIVMTQSPATLSVTPGDRVSLSCRASQSISDYVYWYQQKSHESPRLLIIYASQSISGIPSRFSGSGSGSDFTLSINSVEPEDVGVYYCQNGHNFPYTFGGGTKLEIK
notes: murine hybridoma-derived anti-KLB antibody; also called KLBmAb2
B12: 25F7 (antibody, V domains shown)
VH: EVQLQQSGAELLKPGASVRLSCTASGFNIQDTFTHWVRQRPEQGLEWIGRIDPSNGNTKYDPKFQGKAKILADTSSNTAYLQLIGLTSEDTAVYYCASRALGNGYAMDYWGQGTSVTVSS
VL: B5 VL with S18R, Y49S, T51A, T52S, V58I, R69K, I72T, S74T, S80T, S85T
notes: as for B1

Biological target: T1, rabbit KLB (+N-ter FLAG)
Experiment: FACS on transfected HEK293T cells
Protocol: (§1) Species cross reactivity of the disclosed anti-KLB antibodies were analyzed by FACS analysis using KLB cDNA from mouse, rat, rabbit, cynomolgus monkey and rhesus monkey cloned into pRK mammalian expression vectors transiently transfected into HEK293T cells. The KLB extracellular domain polypeptide sequences that were expressed are as follows: […]

binding result | Binder
binds | B1
no binding | B2
binds | B3
binds | B4
binds | B5
binds | B6
binds | B7
binds | B8
binds | B9
binds | B10
binds | B11

Biological target: T2, cynomolgus monkey KLB (+N-ter FLAG)
Experiment: FACS on transfected HEK293T cells
Protocol: as §1

binding result | Binder
binds | B1
binds | B2
binds | B3
binds | B4
binds | B5
binds | B12
binds | B6
binds | B7
binds | B8
binds | B9
binds | B10
binds | B11

These binders were tested against T3, hKLB-ECD-HIS protein (human, UniProt Q86Z14 53-996) (assay: ELISA on hKLB-ECD-HIS protein, chimeric IgG (murine variable, hIgG1 constant regions), OD450).
T3 construct: recombinant hKLB-ECD-HIS protein (R&D Systems); also called recombinant KLB-ECD protein; not shown: HIS tag
From the text: In addition, some of the antibodies were ranked by ELISA. For these experiments, anti-KLB antibodies that were chimeric recombinant IgG with murine variable regions and hIgG1 constant regions were used to measure binding to hKLB-ECD-HIS protein.

binding result | Binder
binds | B2
binds | B5

Each binder was assayed against T4, human KLB expressed on cells (human, UniProt Q86Z14 53-1044) (assay: FACS on 293 cells expressing hKLB, antibody at 0.8 µg/ml, median shift).
T4 construct: on transfected 293 / HEK293 cells; also called hKLB; beta-Klotho

binding result | Binder
binds | B1
binds | B2
binds | B3
binds | B4
binds | B5
binds | B12
binds | B6
binds | B7
binds | B8
binds | B9
binds | B10
binds | B11
